T1: CD24-his protein (human, UniProt P25063 27-59, posttranslational modification (purified from mammalian cell))
T1 construct: Purified from mammalian (HEK293) cells; also called soluble recombinant CD24 protein; human HEK293 purified CD24-his protein; not shown: His tag
T1 chain (looked up): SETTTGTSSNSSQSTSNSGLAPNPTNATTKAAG

T2: human CD24 on cells (human, UniProt P25063 27-59)
T2 construct: whole, on cells; One molecule for all cell lines; the cell line is named under assay or readout; also called cell surface CD24; cell-based CD24
T2 chain (looked up): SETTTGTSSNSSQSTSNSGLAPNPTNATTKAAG


Assays:
CD24-his protein = molecular target: T1, CD24-his protein; assay: Siglec10-PE competition assay (gMFI on the sheet); legend: Siglec-10-his-Biotin mixed with the antibody, plate coated with CD24 protein
Protocol: Samples were washed three times with washing buffer. And then signal was tested.
CD24-his protein was firstly coated in 96-well plate overnight.

human CD24 on cells [1] = molecular target: T2, human CD24 on cells; assay: flow cytometry (MFI), NALM6 cells [Cont'd) B]
human CD24 on cells [2] = molecular target: T2, human CD24 on cells; assay: cell-based or functional assay
human CD24 on cells [3] = molecular target: T2, human CD24 on cells; assay: flow cytometry (MFI), MCF-7 cells [Cont'd) B]

IC50 (read off the curve) (CD24-his protein) | EC50 (read off the curve) (human CD24 on cells [1]) | EC50 of Phagocytosis assay, IgG4, Kappa; HEK293-CD24 (human CD24 on cells [2]) | EC50 of Phagocytosis assay, IgG4, Kappa; MCF-7 (human CD24 on cells [2]) | EC50 of Phagocytosis assay, IgG4, Kappa; NALM6 (human CD24 on cells [2]) | EC50 of Phagocytosis assay, IgG4, Kappa; OVCAR3 (human CD24 on cells [2]) | EC50 (read off the curve) (human CD24 on cells [3]) | Binder
~1 µg/mL | – | – | – | – | – | – | 4451HM15-IgG4 (antibody, V domains shown, IgG4; also called IgG4 isoform of 4451HM15) VH: QVQLVQSGAEVKKPGASVKVSCKASGYDFTGYHMGWVRQAPGQGLEWMGEINPITSDKYFNQKFKSRVTMTRDTSISTAYMELSRLRSDDTAVYYCARRDYGTSLDYWGQGTTVTVSS VL: DIQLTQSPSFLSASVGDRVTITCRASASISKYLAWYQQKPGKAPKLLIYAGSTLHSGIPSRFRGSGSGTEFTLTISSLQPEDFATYYCQQHNEYPITFGQGTKLEIK
– | ~0.4 µg/mL | 0.42 µg/mL | 0.43 µg/mL | 0.47 µg/mL | 0.38 µg/mL | ~0.4 µg/mL | 85-D5A10 (4434), IgG4, Kappa (antibody, V domains shown) VH: EVQLQQSGPELVKPGASVKISCKASGYEFTGYHMNWVKQSPEKSLEWIGEINPITSDKTFNQKFKAKATLTVDRSSSTAYMHLKSLTSDDSAVYYCARRDYGTSLDYWGQGTTLTVSS VL: DVQITQSPSYLAASPGETITIYCRASKSISKYLAWYQEKPEKTIRLLIYAGSTLQSGIPSRFRGSGSGKDFTLTVSGLEPEDFAMYYCQQHNEYPITFGAGTKLELI
– | ~0.4 µg/mL | 0.44 µg/mL | 0.74 µg/mL | 0.32 µg/mL | 0.16 µg/mL | – | 74-H4C6 (4451), IgG4, Kappa (antibody, V domains shown) VH: EVQLQQSGPELVKPGASVKISCKASGYDFTGYHMNWVKQSPEKSLEWIGEINPITSDKTFNQKFKSKATLTVDRSSSTAYMYLKSLTSEDSAVYYCARRDYGTSLDYWGQGTTLTVSS VL: DVQITQSPSYLAASPGETITIYCRASKSISKYLAWYQEKPEKTNRLLIYAGSTLHSGIPSRFRGSGSGKDFTLTVSGLEPEDFAMYYCQQHNEYPITFGAGTKLELK
– | ~0.5 µg/mL | 0.43 µg/mL | 0.96 µg/mL | 0.57 µg/mL | 0.16 µg/mL | – | 89-E8C12 (4428), IgG4, Kappa (antibody, V domains shown) VH: EVQLQQSGPELVKPGASVKISCKASGYDFTGYYMNWMKQSPEKSLEWIGEINPITSHNTFNQKFKAKATLTVDRSSSTAYMHLKSLTSEDSAVYYCARRDYGTSLDYWGQGTTLTVSS VL: DVQITQSPSYLAASPGETITIYCRASKSISKYLAWYQEKPEKTIRLLIYAGSTLQSGIPSRFRGSGSGTDFTLTVSGLEPEDFAMYYCQQHNEYPLTFGAGTKLELK
